# Test results reported in patent US20230055711A1 (BIOSION, published 2023).
# Molecular target: recombinant human BCMA-his protein (Acro biosystems, Cat #BCA-H522Y) (human) (UniProt Q02223)
# Assay: BLI Octet RED96, antibody on AHC sensor, BCMA-his in solution
# Chain of recombinant human BCMA-his protein (Acro biosystems, Cat #BCA-H522Y) (human) (Q02223 1-54, stated change not applied): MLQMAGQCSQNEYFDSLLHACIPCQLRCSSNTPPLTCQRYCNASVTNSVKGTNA
Binder,Kd [nM],koff [s⁻¹],kon [M⁻¹ s⁻¹]
"huB1H2-V1 (antibody, human IgG1, kappa, V domains shown) VH: EVQLVQSGAEVKKPGSSVKVSCKASGYTLTNYVMHWMRQAPGQGLEWIGFIIPFNDGTKYNEHFKGRATLTSDKSTNTAYMELSSLRSEDTAVYYCARYDFEGYFDVWGAGTLVTVSS VL: DIQMTQSPSSLSASVGDRVTITCSASQDITNFLNWYQQKPGKTVKLLIYSTSRLHSGVPSRFSGSGSGTDYTFTISSLQPEDIATYYCQQYSNLPWTFGQGTKVEIKR",1.22,0.000498,407000
"huB1H2-V6 (antibody, human IgG1, kappa, V domains shown) VH: QVQLVQSGAEVKKPGASVKVSCKASGYTLTNYVMHWVRQAPGQGLEWIGFIIPFNDGTKYNEHFKGRVTITSDKSISTAYMQLSSLRSEDTAVYYCARYDFEGYFDVWGQGTLVTVSS VL: DIQMTQSPSSLSASVGDRVTITCSASQDITNFLNWYQQKPGKTVKLLIYSTSRLHSGVPSRFSGSGSGTDYTFTISSLQPEDIATYYCQQYSNLPWTFGQGTKVEIKR",1.12,0.00044,392000
"huB1H2-V14 (antibody, human IgG1, kappa, V domains shown) VH: QVQLVQSGAEVKKPGASVKVSCKASGYTLTNYVMHWVRQAPGQGLEWIGFIIPFNDGTKYNEHFKGRVTITRDTSISTAYMQLSSLRSEDTAVYYCARYDFEGYFDVWGQGTLVTVSS VL: DIQMTQSPSSLSASVGDRVTITCSASQDITNFLNWYQQKPGKAVKLLIYSTSRLHSGVPSRFSGSGSGTDFTLTISSLQPEDIATYYCQQYSNLPWTFGQGTKVEIKR",5.14,0.00137,266000
"huB1H2-V4 (antibody, human IgG1, kappa, V domains shown) VH: QVQLVQSGAEVKKPGASVKVSCKASGYTLTNYVMHWVRQAPGQGLEWIGFIIPFNDGTKYNEHFKGRVTITSDTSISTAYMQLSSLRSEDTAVYYCARYDFEGYFDVWGQGTLVTVSS VL: DIQMTQSPSSLSASVGDRVTITCSASQDITNFLNWYQQKPGKTVKLLIYSTSRLHSGVPSRFSGSGSGTDYTFTISSLQPEDIATYYCQQYSNLPWTFGQGTKVEIKR",0.269,0.00029,1.08e+06
"huB1H2-V15 (antibody, human IgG1, kappa, V domains shown) VH: QVQLVQSGAEVKKPGASVKVSCKASGYTLTNYVMHWMRQAPGQGLEWIGFIIPFNDGTKYNEHFKGRVTITRDTSISTAYMQLSSLRSEDTAVYYCARYDFEGYFDVWGQGTLVTVSS VL: DIQMTQSPSSLSASVGDRVTITCSASQDITNFLNWYQQKPGKAVKLLIYSTSRLHSGVPSRFSGSGSGTDFTLTISSLQPEDIATYYCQQYSNLPWTFGQGTKVEIKR",6.06,0.00137,226000
"huB1H2-V5 (antibody, human IgG1, kappa, V domains shown) VH: QVQLVQSGAEVKKPGASVKVSCKASGYTLTNYVMHWVRQAPGQGLEWIGFIIPFNDGTKYNEHFKGRVTITRDKSISTAYMQLSSLRSEDTAVYYCARYDFEGYFDVWGQGTLVTVSS VL: DIQMTQSPSSLSASVGDRVTITCSASQDITNFLNWYQQKPGKTVKLLIYSTSRLHSGVPSRFSGSGSGTDYTFTISSLQPEDIATYYCQQYSNLPWTFGQGTKVEIKR",0.915,0.000372,407000
"huB1H2-V3 (antibody, human IgG1, kappa, V domains shown) VH: QVQLVQSGAEVKKPGASVKVSCKASGYTLTNYVMHWMRQAPGQGLEWIGFIIPFNDGTKYNEHFKGRVTITRDTSISTAYMQLSSLRSEDTAVYYCARYDFEGYFDVWGQGTLVTVSS VL: DIQMTQSPSSLSASVGDRVTITCSASQDITNFLNWYQQKPGKTVKLLIYSTSRLHSGVPSRFSGSGSGTDYTFTISSLQPEDIATYYCQQYSNLPWTFGQGTKVEIKR",0.731,0.000402,550000
"huB1H2-V2 (antibody, human IgG1, kappa, V domains shown) VH: QVQLVQSGAEVKKPGASVKVSCKASGYTLTNYVMHWVRQAPGQGLEWIGFIIPFNDGTKYNEHFKGRVTITRDTSISTAYMQLSSLRSEDTAVYYCARYDFEGYFDVWGQGTLVTVSS VL: DIQMTQSPSSLSASVGDRVTITCSASQDITNFLNWYQQKPGKTVKLLIYSTSRLHSGVPSRFSGSGSGTDYTFTISSLQPEDIATYYCQQYSNLPWTFGQGTKVEIKR",1.29,0.000742,573000
"huB1H2-V17 (antibody, human IgG1, kappa, V domains shown) VH: QVQLVQSGAEVKKPGASVKVSCKASGYTLTNYVMHWVRQAPGQGLEWIGFIIPFNDGTKYNEHFKGRVTITRDKSISTAYMQLSSLRSEDTAVYYCARYDFEGYFDVWGQGTLVTVSS VL: DIQMTQSPSSLSASVGDRVTITCSASQDITNFLNWYQQKPGKAVKLLIYSTSRLHSGVPSRFSGSGSGTDFTLTISSLQPEDIATYYCQQYSNLPWTFGQGTKVEIKR",9.16,0.00238,260000
"huB1H2-V16 (antibody, human IgG1, kappa, V domains shown) VH: QVQLVQSGAEVKKPGASVKVSCKASGYTLTNYVMHWVRQAPGQGLEWIGFIIPFNDGTKYNEHFKGRVTITSDTSISTAYMQLSSLRSEDTAVYYCARYDFEGYFDVWGQGTLVTVSS VL: DIQMTQSPSSLSASVGDRVTITCSASQDITNFLNWYQQKPGKAVKLLIYSTSRLHSGVPSRFSGSGSGTDFTLTISSLQPEDIATYYCQQYSNLPWTFGQGTKVEIKR",3.5,0.000887,254000
"huB1H2-V13 (antibody, human IgG1, kappa, V domains shown) VH: EVQLVQSGAEVKKPGSSVKVSCKASGYTLTNYVMHWMRQAPGQGLEWIGFIIPFNDGTKYNEHFKGRATLTSDKSTNTAYMELSSLRSEDTAVYYCARYDFEGYFDVWGAGTLVTVSS VL: DIQMTQSPSSLSASVGDRVTITCSASQDITNFLNWYQQKPGKAVKLLIYSTSRLHSGVPSRFSGSGSGTDFTLTISSLQPEDIATYYCQQYSNLPWTFGQGTKVEIKR",2.21,0.000688,312000

# Next, values leading:
Kd [nM],koff [s⁻¹],kon [M⁻¹ s⁻¹],Binder
2.65,0.000647,244000,"huB1H2-V19 (antibody, human IgG1, kappa, V domains shown) VH: EVQLVQSGAEVKKPGSSVKVSCKASGYTLTNYVMHWMRQAPGQGLEWIGFIIPFNDGTKYNEHFKGRATLTSDKSTNTAYMELSSLRSEDTAVYYCARYDFEGYFDVWGAGTLVTVSS VL: DIQMTQSPSSLSASVGDRVTITCSASQDITNFLNWYQQKPGKAPKLLIYSTSRLHSGVPSRFSGSGSGTDYTLTISSLQPEDIATYYCQQYSNLPWTFGQGTKVEIKR"
6,0.00141,234000,"huB1H2-V20 (antibody, human IgG1, kappa, V domains shown) VH: QVQLVQSGAEVKKPGASVKVSCKASGYTLTNYVMHWVRQAPGQGLEWIGFIIPFNDGTKYNEHFKGRVTITRDTSISTAYMQLSSLRSEDTAVYYCARYDFEGYFDVWGQGTLVTVSS VL: DIQMTQSPSSLSASVGDRVTITCSASQDITNFLNWYQQKPGKAPKLLIYSTSRLHSGVPSRFSGSGSGTDYTLTISSLQPEDIATYYCQQYSNLPWTFGQGTKVEIKR"
6.1,0.001,164000,"huB1H2-V24 (antibody, human IgG1, kappa, V domains shown) VH: QVQLVQSGAEVKKPGASVKVSCKASGYTLTNYVMHWVRQAPGQGLEWIGFIIPFNDGTKYNEHFKGRVTITSDKSISTAYMQLSSLRSEDTAVYYCARYDFEGYFDVWGQGTLVTVSS VL: DIQMTQSPSSLSASVGDRVTITCSASQDITNFLNWYQQKPGKAPKLLIYSTSRLHSGVPSRFSGSGSGTDYTLTISSLQPEDIATYYCQQYSNLPWTFGQGTKVEIKR"
20.4,0.00214,105000,"huB1H2-V23 (antibody, human IgG1, kappa, V domains shown) VH: QVQLVQSGAEVKKPGASVKVSCKASGYTLTNYVMHWVRQAPGQGLEWIGFIIPFNDGTKYNEHFKGRVTITRDKSISTAYMQLSSLRSEDTAVYYCARYDFEGYFDVWGQGTLVTVSS VL: DIQMTQSPSSLSASVGDRVTITCSASQDITNFLNWYQQKPGKAPKLLIYSTSRLHSGVPSRFSGSGSGTDYTLTISSLQPEDIATYYCQQYSNLPWTFGQGTKVEIKR"
2.22,0.000921,415000,"huB1H2-V18 (antibody, human IgG1, kappa, V domains shown) VH: QVQLVQSGAEVKKPGASVKVSCKASGYTLTNYVMHWVRQAPGQGLEWIGFIIPFNDGTKYNEHFKGRVTITSDKSISTAYMQLSSLRSEDTAVYYCARYDFEGYFDVWGQGTLVTVSS VL: DIQMTQSPSSLSASVGDRVTITCSASQDITNFLNWYQQKPGKAVKLLIYSTSRLHSGVPSRFSGSGSGTDFTLTISSLQPEDIATYYCQQYSNLPWTFGQGTKVEIKR"
7.12,0.00142,199000,"huB1H2-V21 (antibody, human IgG1, kappa, V domains shown) VH: QVQLVQSGAEVKKPGASVKVSCKASGYTLTNYVMHWMRQAPGQGLEWIGFIIPFNDGTKYNEHFKGRVTITRDTSISTAYMQLSSLRSEDTAVYYCARYDFEGYFDVWGQGTLVTVSS VL: DIQMTQSPSSLSASVGDRVTITCSASQDITNFLNWYQQKPGKAPKLLIYSTSRLHSGVPSRFSGSGSGTDYTLTISSLQPEDIATYYCQQYSNLPWTFGQGTKVEIKR"
3.77,0.000862,229000,"huB1H2-V22 (antibody, human IgG1, kappa, V domains shown) VH: QVQLVQSGAEVKKPGASVKVSCKASGYTLTNYVMHWVRQAPGQGLEWIGFIIPFNDGTKYNEHFKGRVTITSDTSISTAYMQLSSLRSEDTAVYYCARYDFEGYFDVWGQGTLVTVSS VL: DIQMTQSPSSLSASVGDRVTITCSASQDITNFLNWYQQKPGKAPKLLIYSTSRLHSGVPSRFSGSGSGTDYTLTISSLQPEDIATYYCQQYSNLPWTFGQGTKVEIKR"
